Test results taken from patent publication US20230279079A1 (CHANG GUNG MEMORIAL HOSPITAL LINKOU, published 2023).

Key:
[1] = molecular target: T1, SARS-CoV-2 spike receptor binding domain (RBD) (SARS-CoV-2, UniProt P0DTC2 319-541); assay: ELISA
T1 construct: also called SARS-CoV-2 RBD

[2] = molecular target: T2, SARS spike S1 subunit (severe acute respiratory syndrome …, UniProt P59594 14-667); assay: ELISA
T2 construct: domain: S1 subunit

[3] = molecular target: T3, MERS spike extracellular domain (Middle East respiratory syndrome …, UniProt K9N5Q8 18-1296); assay: ELISA
T3 construct: extracellular domain
T3 sequence (K9N5Q8 18-1296): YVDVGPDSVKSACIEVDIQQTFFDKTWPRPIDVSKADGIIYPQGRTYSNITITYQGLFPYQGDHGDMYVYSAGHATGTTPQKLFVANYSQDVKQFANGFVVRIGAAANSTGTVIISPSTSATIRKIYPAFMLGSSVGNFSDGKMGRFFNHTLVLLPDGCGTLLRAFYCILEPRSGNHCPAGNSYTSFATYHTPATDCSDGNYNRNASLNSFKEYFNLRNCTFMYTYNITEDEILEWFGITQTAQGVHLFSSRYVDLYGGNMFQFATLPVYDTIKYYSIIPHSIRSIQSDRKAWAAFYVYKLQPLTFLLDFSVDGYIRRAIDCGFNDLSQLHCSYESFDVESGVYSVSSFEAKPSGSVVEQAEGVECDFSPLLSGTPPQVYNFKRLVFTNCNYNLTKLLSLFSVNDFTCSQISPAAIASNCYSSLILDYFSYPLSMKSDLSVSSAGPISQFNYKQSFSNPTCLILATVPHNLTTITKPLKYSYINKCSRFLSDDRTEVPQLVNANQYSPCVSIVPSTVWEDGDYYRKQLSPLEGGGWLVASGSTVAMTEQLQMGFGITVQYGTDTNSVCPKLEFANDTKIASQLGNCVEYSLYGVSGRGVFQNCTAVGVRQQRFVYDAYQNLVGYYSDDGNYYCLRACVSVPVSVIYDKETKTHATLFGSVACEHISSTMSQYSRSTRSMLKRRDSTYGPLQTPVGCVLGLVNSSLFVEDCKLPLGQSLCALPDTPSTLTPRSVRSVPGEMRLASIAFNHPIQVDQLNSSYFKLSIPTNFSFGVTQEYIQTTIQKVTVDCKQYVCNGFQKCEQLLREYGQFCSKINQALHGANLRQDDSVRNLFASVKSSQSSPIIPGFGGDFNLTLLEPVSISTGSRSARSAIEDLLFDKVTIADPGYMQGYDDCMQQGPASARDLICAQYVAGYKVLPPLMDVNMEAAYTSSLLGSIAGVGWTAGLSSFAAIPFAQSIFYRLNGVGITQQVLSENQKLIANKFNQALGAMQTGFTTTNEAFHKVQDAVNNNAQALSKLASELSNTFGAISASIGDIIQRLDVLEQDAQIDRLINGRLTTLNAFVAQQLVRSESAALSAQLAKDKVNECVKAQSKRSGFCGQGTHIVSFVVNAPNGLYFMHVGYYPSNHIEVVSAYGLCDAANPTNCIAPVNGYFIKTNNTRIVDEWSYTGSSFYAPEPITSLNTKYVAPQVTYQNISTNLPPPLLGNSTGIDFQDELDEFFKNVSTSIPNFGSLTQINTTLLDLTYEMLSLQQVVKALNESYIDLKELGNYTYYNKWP

[4] = molecular target: T4, SARS-CoV-2 spike S1 subunit (SARS-CoV-2, UniProt P0DTC2 16-685); assay: ELISA
T4 construct: domain: S1 subunit

[5] = molecular target: T5, Human coronavirus OC43 spike extracellular domain (human coronavirus OC43, UniProt P36334 14-1297); assay: ELISA
T5 construct: extracellular domain
T5 sequence (P36334 14-1297): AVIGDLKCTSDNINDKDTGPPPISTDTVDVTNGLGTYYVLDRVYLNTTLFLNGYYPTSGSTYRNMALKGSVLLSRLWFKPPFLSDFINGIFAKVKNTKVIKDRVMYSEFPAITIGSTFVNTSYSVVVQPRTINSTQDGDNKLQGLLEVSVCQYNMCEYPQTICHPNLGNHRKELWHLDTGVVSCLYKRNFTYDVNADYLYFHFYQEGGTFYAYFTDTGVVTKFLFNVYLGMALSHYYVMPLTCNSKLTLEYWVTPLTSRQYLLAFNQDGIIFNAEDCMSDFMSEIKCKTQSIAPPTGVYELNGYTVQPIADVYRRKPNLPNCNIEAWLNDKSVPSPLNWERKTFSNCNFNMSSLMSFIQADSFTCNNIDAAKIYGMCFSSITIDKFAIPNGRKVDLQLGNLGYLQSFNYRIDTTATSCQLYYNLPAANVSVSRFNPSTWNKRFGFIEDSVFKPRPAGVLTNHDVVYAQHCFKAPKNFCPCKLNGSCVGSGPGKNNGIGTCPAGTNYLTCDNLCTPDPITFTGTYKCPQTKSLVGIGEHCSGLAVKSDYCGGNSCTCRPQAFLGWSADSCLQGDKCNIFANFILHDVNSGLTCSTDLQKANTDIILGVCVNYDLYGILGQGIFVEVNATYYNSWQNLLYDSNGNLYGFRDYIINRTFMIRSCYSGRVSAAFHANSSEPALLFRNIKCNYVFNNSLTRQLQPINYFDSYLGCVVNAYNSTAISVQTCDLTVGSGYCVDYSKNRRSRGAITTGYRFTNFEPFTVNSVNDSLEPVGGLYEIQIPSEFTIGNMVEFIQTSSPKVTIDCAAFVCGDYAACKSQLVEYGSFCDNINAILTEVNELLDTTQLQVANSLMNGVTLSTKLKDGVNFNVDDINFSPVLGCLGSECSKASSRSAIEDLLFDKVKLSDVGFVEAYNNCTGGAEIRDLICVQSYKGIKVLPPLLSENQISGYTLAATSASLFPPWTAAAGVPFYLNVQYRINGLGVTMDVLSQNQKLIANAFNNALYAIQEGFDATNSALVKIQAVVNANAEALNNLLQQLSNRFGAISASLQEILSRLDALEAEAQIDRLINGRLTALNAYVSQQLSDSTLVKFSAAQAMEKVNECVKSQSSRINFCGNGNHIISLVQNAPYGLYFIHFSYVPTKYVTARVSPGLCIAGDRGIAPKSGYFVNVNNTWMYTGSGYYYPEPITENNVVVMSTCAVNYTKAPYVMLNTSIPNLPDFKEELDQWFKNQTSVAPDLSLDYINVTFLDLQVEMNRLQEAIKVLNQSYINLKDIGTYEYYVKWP

[6] = molecular target: T6, SARS-CoV-2 spike S2 subunit (SARS-CoV-2, UniProt P0DTC2 686-1213); assay: ELISA
T6 construct: domain: S2 subunit

[7] = molecular target: spike glycoprotein of wild type SARS-CoV-2 virus (SARS-CoV-2, UniProt P0DTC2 14-1273); assay: cell-based or functional assay

Binder | binding result [1] | binding result [2] | binding result [3] | binding result [4] | binding result [5] | binding result [6] | Neutralization by PRNT EC50 [7] | Neutralization by FMNT EC50 [7]
FN 2C (antibody, V domains shown) VH: EVQLLESGGGVVQPGRSLRLSCAASGFNFNNYGMHWVRQAPGKGLEWVATISYEGSKKFYVDSVKGRFTISKDNSKNTLYLQMNSLRVDDTAFYYCAKRREIFWLGEPPLSDAFDFWGQGTMVTVSS VL: QSVLTQPPSVSGAPGQRVTISCTGSGSNIGAGYDVHWYQFLPGTAPQLLIYGNNNRPSGVPDRFSGSKSGTSASLAITGLQAEDEADYYCQSYDSSLSGSVFGGGTKLTVL | no binding | no binding | no binding | no binding | – | – | – | –
FG 12C (antibody, V domains shown) VH: EVQLVESGGGLVQPGRSLRLSCAASGFTFDDYAMHWVRQAPGKGLEWVSGISWNSGSIGYADSVKGRFTISRDNAKNSLYLQMNSLRAEDTALYYCAKDMRVHDYGDYYFDYWGQGTLVTVSS VL: SYELTQPPSVSVAPGKTARITCGGNNIGSKSVHWYQQKPGQAPVLVIYYDSDRPSGIPERFSGSNSGNTATLTISRVEAGDEADYYCQVWDSSSDHPVFGGGTKLTVL | no binding | no binding | no binding | – | no binding | no binding | – | –
FN 8C (antibody, V domains shown) VH: QVQLVESGGGVVQPGRSLRLSCAASGFTFSSYGMHWVRQAPGKGLEWVAVISYDGSNKYYADTVKGRFTISRDNSKNTLYLQMNSLRAEDTAVYYCARERTYYDILTGYRHYYGMDVWGQGTTVTVSS VL: SYELTQPPSVSVAPGQTARITCGGNNIGSKSVHWYQQKPGQAPVLVVYDDSDRPSGIPERFSGSNSGNTATLTISRVEAGDEADYYCQVWDSSSDHWVFGGGTKLTVL | no binding | no binding | no binding | – | no binding | no binding | – | –
FD 1E (antibody, V domains shown) VH: EVQLLESGGGLVKPGGSLRLSCAASGFTFSSYSMNWVRQAPGKGLEWVSSISSSSSYIYYADSVKGRFTISRDNAKNSLYLQMNSLRAEDTAVYYCASLAAAGPETYYYYGMDVWGQGTMVTVSS VL: not shown | no binding | no binding | no binding | – | no binding | no binding | 110 nM | –
FD 11E (antibody, V domains shown) VH: EVQLVESGGGLVKPGGSLRLSCAASGFTFSSYSMNWVRQAPGKGLEWVSSISSSSSYIYYADSVKGRFTISRDNAKNSLYLQMNSLRAEDTAVYYCASLAAAGPETYYYYGMDVWGQGTMVTVSS VL: not shown | no binding | no binding | no binding | – | no binding | no binding | 70 nM | –
FJ 1C (antibody, V domains shown) VH: QVQLQESGPGLVKPSETLSLTCTVSGYSISSGYYWGWIRQPPGKGLEWIGSIYHSGSTYYNPSLKSRVTISVDTSKNQFSLKLSSVTAADTAVYYCARDKALLWFGELFTNLFDYWGQGTLVTVSS VL: QSALTQPASVSGSPGQSITISCTGTSSDVGGYNYVSWYQQHPGKAPKLMIYEVSNRPSGVSNRFSGSKSGNTASLTISGLQAEDEANYYCSSYTSSSTLVFGGGTKLTVL | no binding | binds | no binding | – | no binding | no binding | 55.5 nM | –
FD 7D (antibody, V domains shown) VH: EVQLVESGAEVKKPGESLRISCKGSGYSFTSYWISWVRQMPGKGLEWMGRIDPSDSYTNYSPSFQGHVTISADKSISTAYLQWSSLKASDTAMYYCARHSDCSSTSCYFVDAFDIWGQGTMVTVSS VL: not shown | no binding | no binding | no binding | – | no binding | no binding | – | –
FJ 4E (antibody, V domains shown) VH: QVQLVESGPGLVKPSETLSLTCSVSGGSISSGTYYWSWIRQQPGKGLEWIGYIYNTGRPYYNPFLKSRITISVDSSKNQFSLKLTSVTAADTAVYYCARDEYDSSDSGIQGHWFDPWGQGTLVTVSS VL: AIRMTQSPSSLSASVGDRVTITCRTSQNINSFLNWYQQKPGKGPNLLIYGAFTLQSGVPSRFSGSGSGTDFTLTISSLQPEDFATYFCQQSYSTPWTFGQGTKVEIK | no binding | binds | binds | no binding | – | – | 75.3 nM | –
FB 9D (antibody, V domains shown) VH: QVQLVESGAEVKKPGESLKISCQGSGYRFNSYWIAWVRQMPGKGLEWMGSIFPTDSDVRYNPSFQGQVTISADKSISFAYLQWSSLKASDTAIYYCARHWASMVRGVIRASHYYGMDVWGQGTTVTVSS VL: QPVLTQPPSASGSPGQSVTISCSGASSDIGKYNYVSWYQQLPGKAPKLLIYEVTKRPSGVPDRFSGSKSGNTASLTVSGLQADDEADYYCSSYAFGGSDTRVFGGGTKLTVL | no binding | no binding | binds | no binding | – | – | – | –
FB 1E (antibody, V domains shown) VH: EVQLVESGAEVKKPGESLKISCQGSGYRFNSYWIAWVRQMPGKGLEWMGSIFPTDSDIRYNPSFQGQVTISADKSISIAYLQWSSLKASDTAIYYCARHWASMVRGVIRASHYYGMDVWGQGTTVTVSS VL: QSVLTQPPSASGSPGQSVTISCSGASSDIGDYNYVSWYQQLPGKAPKLLIYEVTKRPSGVPDRFSGSKSGNTASLTVSGLQADDEADYYCSSYAFGGSDIRVFGGGTKLAVL | no binding | no binding | binds | no binding | – | – | 36 nM | –
FD 7C (antibody, V domains shown) VH: QLQLQESGPGLVKPSETLSLTCTVSGGSISSYYWSWIRQPPGKGLEWIGYIYYSGSTNYNPSLKSRVTISVDTSKNQFSLKLSSVTAADTAVYYCARDYRFGELFGRFAWFDPWGQGTLVTVSS VL: not shown | no binding | no binding | no binding | – | no binding | no binding | – | 35.6 nM
FD 8B (antibody, V domains shown) VH: EVQLLESGAEVKKPGASVKVSCKVSGYTLTELSMHWVRQAPGKGLEWMGGFDPEDGETIYAQKFQGRVTMTEDTSTDTAYMELSSLRSEDTAVYYCATAAAINCSSTSCYYYYYYYGMDVWGQGTTVTVSS VL: not shown | no binding | no binding | no binding | – | no binding | no binding | – | –
